In publication PMC2978023 (Journal of immunology (Baltimore, Md. : 1950), 2008):

B1: Fas ligand: promotes PMN death via interaction with its receptor on the cell surface (protein, UniProt P48023 130-281, looked up)
Tumor necrosis factor ligand …: QIGHPSPPPEKKELRKVAHLTGKSNSRSMPLEWEDTYGIVLLSGVKYKKGGLVINETGLYFVYSKVYFRGQSCNNLPLSHKVYMRNSKYPQDLVMMEGKMMSYCTTGQMWARSSYLGAVFNLTSADHLYVNVSELSLVNFEESQTFFGLYKL
B2: plasmin (protein, UniProt P00747 20-580; P00747 581-810, looked up)
Plasmin heavy chain A: EPLDDYVNTQGASLFSVTKKQLGAGSIEECAAKCEEDEEFTCRAFQYHSKEQQCVIMAENRKSSIIIRMRDVVLFEKKVYLSECKTGNGKNYRGTMSKTKNGITCQKWSSTSPHRPRFSPATHPSEGLEENYCRNPDNDPQGPWCYTTDPEKRYDYCDILECEEECMHCSGENYDGKISKTMSGLECQAWDSQSPHAHGYIPSKFPNKNLKKNYCRNPDRELRPWCFTTDPNKRWELCDIPRCTTPPPSSGPTYQCLKGTGENYRGNVAVTVSGHTCQHWSAQTPHTHNRTPENFPCKNLDENYCRNPDGKRAPWCHTTNSQVRWEYCKIPSCDSSPVSTEQLAPTAPPELTPVVQDCYHGDGQSYRGTSSTTTTGKKCQSWSSMTPHRHQKTPENYPNAGLTMNYCRNPDADKGPWCFTTDPSVRWEYCNLKKCSGTEASVVAPPPVVLLPDVETPSEEDCMFGNGKGYRGKRATTVTGTPCQDWAAQEPHRHSIFTPETNPRAGLEKNYCRNPDGDVGGPWCYTTNPRKLYDYCDVPQCAAPSFDCGKPQVEPKKCPGR
Plasmin light chain B: VVGGCVAHPHSWPWQVSLRTRFGMHFCGGTLISPEWVLTAAHCLEKSPRPSSYKVILGAHQEVNLEPHVQEIEVSRLFLEPTRKDIALLKLSSPAVITDKVIPACLPSPNYVVADRTECFITGWGETQGTFGAGLLKEAQLPVIENKVCNRYEFLNGRVQSTELCAGHLAGGTDSCQGDSGGPLVCFEKDKYILQGVTSWGLGCARPNKPGVYVRVSRFVTWIEGVMRNN
modifications: Plasmin

What was measured:
PMN = settings: cited from earlier work
human PMNs = settings: PMN; data not shown
monocytes = settings: PAR-1-dependent; ref [29]; cited from earlier work

| Molecule | effect on PMN death (PMN) | prosurvival/cytoprotective effect on PMN (in words) (human PMNs) | effect on TNF-α-induced apoptosis in monocytes (monocytes) |
| --- | --- | --- | --- |
| B1 | promote PMN death | – | – |
| B2 | – | did not exert a cytoprotective function | inhibits TNF-α-induced apoptosis in monocytes |
